Assay results reported in paper PMC11640050.

target: Rictor (R28 cells); assay: co-IP (Rictor IP) with DSP crosslinker, western blot band quantification; settings: TNF+HG treatment

| ratio to parent | Substance |
| --- | --- |
| 0.35 | 3X-FLAG-tagged wild-type HSPB4 (αA-crystallin) (from UniProt P02489) R21A |
| 0.26 | 3X-FLAG-tagged wild-type HSPB4 (αA-crystallin) (from UniProt P02489) R49A |
| 0.75 | 3X-FLAG-tagged wild-type HSPB4 (αA-crystallin) (from UniProt P02489) T148A |
| 0.11 | 3X-FLAG-tagged wild-type HSPB4 (αA-crystallin) (from UniProt P02489) T148D |
